Data from US12534533B2, “Anti-chemokine like receptor 1 humanized antibodies and their therapeutic applications” (OSE IMMUNOTHERAPEUTICS, priority 2019, dated 2026).
Changes are numbered by the printed parent chain.

Experiments:
[1] = tested on: Mice dendritic cells; test: DCs maturation and differentiation, activation markers by FACS; type: cell-based; details: compared to the excipient or isotype control; FIG. 16
Experimental: FIG. 1. Effect of the anti-CMKLR1 variants 1G1, 2G1, 3G1 and 4G1 chimeric antibodies on the DCs maturation and differentiation. Mice dendritic cells were incubated during maturation phase (24 h or 48 h) followed by a differentiation phase with excipient or RvE1 or anti-CMKLR1 antibodies variants (mutations on positions 1 and 2 of SEQ ID No. 8, corresponding to the VH-CDR3: 1G1 (LL), 2G1 (LI), 3G1 (IL) or 4G1 (II) or isotype controls (hIgG1 or mIgG)). Cells were then stained for FACS analysis with cell marker antibodies: A. CD80-PE; B. CD86-FITC; C. CD103-PerCPCy5.5; D. I/Ab-APC. Mean of Fluorescence was determined in each condition. E and F represent the viability of the cells measured by FACS using LIVE/DEAD® kit from Life Technologies in each condition after 24 or 48 hours of maturation respectively.
FIG. 16. Study of the myeloid cell activation markers after CMKLR1 pathway activation. Dendritic cells incubated in excipient, RvE1, 2G1 or isotype control (hIgG1) were then stained for FACS analysis with marker antibodies: A. CD80-PE. B. CD86-FITC. C. CD103-PerCPCy5.5. D. CD40-PeCy7. E. I/Ab-APC. Mean of Fluorescence was determined in each condition.
Bone marrow cells were harvested and cultured in RPMI medium supplemented with 10% FBS, glutamine and antibiotics and the dendritic cell differentiation was induced by GM-CSF at 20 ng/ml for 7 days. Then, immature dendritic cells (iDC) were collected and cultured for 24 hours with LPS (100 ng/ml) to induce the maturation from iDC to mDC. Treatments were added during differentiation and maturation at 2 μg/ml.
Dendritic cells were resuspended in PBS-FBS-EDTA and incubated with live and dead (LIVE/DEAD® Fixable Dead Cell Stains Yellow-Life Technologies) for 30 minutes on ice. Staining of CD11c-BV711, CD11b-APCCy7, I/Ab-APC, CD103-PerCPCy5.5, CCR7-V450, CD40-PeCy7, CD80-PE, CD86-FITC (all provided by BD Pharmingen) were performed.

[2] = tested on: colitis induced by TNBS; test: acute inflammatory colitis model induced by TNBS; type: in vivo, mice; details: RvE1 1 μg per mouse daily, 2G1 10 μg per mouse; FIG. 3
Experimental: FIG. 3. Effect of an anti-CMKLR1 antibody on a mice acute inflammatory colitis model induced by TNBS. Mice received 200 μL of the haptenating agent TNBS at 5% in 50% ethanol on day 0 and then were injected with isotype control hIgG1 (10 μg per mouse) (x), RvE1 (1 μg per mouse) daily (●), or 2G1 antibody (10 μg per mouse) three times (□) for 5 days, or non-treated (wild type animals) (▴). Mice were sacrificed colon length was measured in each condition.
Colitis was induced in 8-10 weeks-old-C57Bl/6 male mice by intrarectal injection of 200 μL of the haptenating agent TNBS at 5% in 50% ethanol on day 0. Treatments were injected intra-peritoneally; RvE1 (1 μg per mouse) daily for three days, or 2G1 antibody (10 μg per mouse) twice for 3 days. Colitis follow-up consisting of body weight and stool score (0: normal stool; 4: blood in stool) parameters were performed daily (data not represented). When mice are euthanized, colon length representing the pathology severity was measured.

[3] = tested on: peritonitis induced by Zymosan A; test: peritonitis model (Zymosan A); type: in vivo, mice; details: vs isotype control
Experimental: FIG. 7. Effect of an anti-CMKLR1 antibody on a mice peritonitis model. Preventive injection of anti-CMKLR1 was performed before Zymosan A injection (1 mg per mouse in 1 mL): RvE1 (1 μg per mouse) (●), 2G1 antibody (10 μg per mouse) (□) or isotype control antibody (x). A. PMN numbered during the first 50 hours after Zymosan A injection. B. Macrophages numbered during the first 50 hours after Zymosan A injection. C. Resolution index.
Common peritonitis is induced by intraperitoneal injection of Zymosan A® (1 mg per mouse in 1 mL). Preventive injection of anti-CMKLR1 was performed 5 minutes before Zymosan A injection: RvE1 (1 μg per mouse), 2G1 antibody (10 μg per mouse). Murine peritoneal polymorphonuclear neutrophil (PMN) and macrophages were collected at 2-4-8-16-24 and 48 h after Zymosan A injection and numbered by flow cytometry analysis to determinate the resolution index (Bannenberg et al., 2005).

[4] = molecular target: T1, Biot-C7 peptide (human ChemR23 peptide, SEQ ID No. 60) (Homo sapiens, UniProt Q99788); test: activity ELISA assay, binding of biotinylated C7 peptide; details: compared to wild-type 2G1; FIG. 23, FIG. 33
T1 construct: purchased synpeptide; host or cells: chemical synthesis
T1 sequence (Q99788 275-307 limits assumed): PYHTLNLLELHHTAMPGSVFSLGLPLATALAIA
From the text: FIG. 23. Binding recognition of C7 peptide by humanized anti-CMKLR1 derived from 2G1. Binding of C7biot in the supernatant of CHO cells transfected with different combinations of heavy and light chains (VHWT+VLWT: combination of SEQ ID No. 37 and SEQ ID No. 49; HCLC: combination of SEQ ID No. 42 and SEQ ID No.52; HDLC: combination of SEQ ID No. 43 and SEQ ID No.52; HCLD: combination of SEQ ID No. 42 and SEQ ID No.53; HDLD: combination of SEQ ID No. 43 and SEQ ID No.53).
FIG. 24. ED50 of anti-CMKLR1 derived from 2G1 antibody. 2G1 wt: HALA: combination of SEQ ID No. 41 and SEQ ID No. 50; combination of SEQ ID No. 37 and SEQ ID No. 49; HCLC: combination of SEQ ID No. 42 and SEQ ID No.52; HDLC: combination of SEQ ID No. 43 and SEQ ID No.52; HCLD: combination of SEQ ID No. 42 and SEQ ID No.53; HDLD: combination of SEQ ID No. 43 and SEQ ID No.53.
FIG. 33—Binding of purified antibodies on human ChemR23 peptide by ELISA assay (A), with ED50 concentration (ng/ml) (B). For activity ELISA assay, donkey anti-human IgG, Fc specific (Jackson Immunoresearch; USA; reference 709-005-098) was immobilized on plastic at 1.3 μg/ml in borate buffer (pH9) and purified antibody was added to measure binding in BSA1% buffer, compared to wild-type 2G1.
For activity ELISA assay, donkey anti-human IgG, Fc specific (Jackson Immunoresearch; USA; reference 709-005-098) was immobilized on plastic at 1.3 μg/ml in borate buffer (pH9) and purified antibody were added to measure binding in BSA1% buffer, compared to wild-type 2G1.
For activity ELISA assay, donkey anti-human IgG, Fc specific (Jackson Immunoresearch; USA; reference 709-005-098) was immobilized on plastic at 1.3 μg/ml in borate buffer (pH9) and purified antibody was added to measure binding in BSA1% buffer, compared to wild-type 2G1.

[5] = tested on: Caspase-3 in PMN from healthy volunteers; test: Caspase-3 expression in PMN by Western Blot; type: cell-based, human; details: coated Ab at 10 μg/mL, FIG. 26B
Experimental: (§1) Neutrophils were isolated from blood of healthy volunteers and cultured for 24 h (Mortality analysis), or 4 h, 6 h, 11 h (Caspase-3 assay), or 5 h (ROS assay) on coated Iso ctrl (cross), chimeric anti-ChemR23 2G1 (square) or different humanized versions of the 2G1 (diamonds). Mortality of PMN was analyzed by incubating PMN with specific markers of the mortality and viability and then counted by picture analysis.
PMN from healthy volunteers were incubated in culture medium with coated Ab at 10 μg/mL for different times and collected for Caspase-3 staining analyzed by Western Blot. The intensity of Capase-3 expression was calculated on WB.

[6] = tested on: ROS production by PMN from healthy volunteers; test: ROS test in PMN; type: cell-based, human; details: coated Ab at 10 μg/mL, after 5 h; FIG. 26C
Experimental: as §1
(§2) PMN from healthy volunteers were incubated in culture medium with coated Ab at 10 μg/mL for 24 h or 5 h and stained either with a dead/viability kit (LIVE/DEAD (Invitrogen)) or a specific marker of reactive oxygen species (ROS) respectively. The percentages of positive cells were obtained by analyzing the pictures with ImageJ software.

[7] = tested on: PMN from healthy volunteers; test: Percentage of dead PMN (mortality of neutrophils) on coated antibodies; type: cell-based, human
Experimental: […] Mortality of PMN was analyzed by incubating PMN with specific markers of the mortality and viability and then counted by picture analysis.
(§3) FIG. 36—Increase of dead PMN neutrophils in vitro with anti-ChemR23 antibodies coated. PMN from healthy volunteers were incubated in culture medium with coated HEF-LDT52S, HEF-LEF and HDLD antibody variants at 10 μg/mL for 24 h and stained either with a dead/viability kit (LIVE/DEAD (Invitrogen)). The percentages of positive cells were obtained by analyzing the pictures with Fiji software. Isotype control was added as control.
as §2
as §3, with “PMN” for “FIG. 36—Increase of dead PMN neutrophils in vitro with anti-ChemR23 antibodies coated. PMN”

CC[C@@H](O)/C=C/C=C\C[C@@H](O)/C=C/C=C/C=C\[C@@H](O)CCCC(=O)O [RvE1, Resolvin E1, reference compound]
expression of CD80, CD86, CD103, CD40 and IAb [1]: strong decrease | colon length [2]: the same as normal animal | PMNs number ([3]; first 50 hours after Zymosan A, FIG. 7A): slightly less | Macrophages number ([3]; first 50 hours after Zymosan A, FIG. 7B): slightly less | resolution index ([3]; FIG. 7C): better resolution index

B1: HCLC: humanized 2G1 variant: combination of SEQ ID No. 42 and SEQ ID No. 52 (antibody, V domains shown)
VH: EVQLVESGGGLVQPGGSLRLSCAASGFTFSSYGMSWVRQAPGKGLELVATINRYGGSTYYAASVKGRFTISRDNSKNTLYLQMNSLRAEDTAVYYCPKLIYYGNEGDSWGQGTLVTVSS
VL: AIQLTQSPSSLSASVGDRVTITCRASQSVSFLHWYQQKPGKAPKRWIYDATKLTSGVPSRFSGSGSGTDFTLTISSLQPEDFATYYCQQWNSKPPLTFGGGTKVEIK
binding activity to antigen-specific peptides (C7 peptide) [4]: even better than the germline antibody HALA and the wild type antibody 2G1

B2: HALA: humanized 2G1 germline antibody: combination of SEQ ID No. 41 and SEQ ID No. 50 (antibody, V domains shown)
VH: B1 VH with A61P, A62D, K98R
VL: B1 VL with R24S, Q27S, L32M, A50T, F70Y
caspase-3 cleavage ([5]; 4 h, 6 h, 11 h): increases caspase-3 cleavage | caspase-3 activity [5]: higher effect on caspase 3 activity as compared to the 2G1 antibody | ROS production by PMN [6]: increase the ROS production | percentage of dead cells ([7]; at 48 hours, compared with IgG1 control): similar

B3: HCLD: humanized 2G1 variant: combination of SEQ ID No. 42 and SEQ ID No. 53 (antibody, V domains shown)
VH: B1 VH
VL: B1 VL with N91Q
binding activity to antigen-specific peptides (C7 peptide) [4]: even better than the germline antibody HALA and the wild type antibody 2G1

B4: HEF-LEF: humanized 2G1 variant: HEF (SEQ ID NO: 91) with LEF (SEQ ID NO: 55) (antibody, V domains shown)
VH: B1 VH with G33A, A49S, N52S, R53G, Y54S
VL: B1 VL with W46L, T51S, T54E, N91Q
mortality of PMN (percentage of dead PMN) ([7]; coated Ab at 10 μg/mL, 24 h, FIG. 26, FIG. 36): accelerate the death of PMN

B5: HDLC: humanized 2G1 variant: combination of SEQ ID No. 43 and SEQ ID No. 52 (antibody, V domains shown)
VH: B1 VH with G33A
VL: B1 VL
binding activity to antigen-specific peptides (C7 peptide) [4]: even better than the germline antibody HALA and the wild type antibody 2G1
